Key:
[1] = target: Synthetic human type I collagen
[2] = target: T1, Synthetic human type III collagen
T1 chain: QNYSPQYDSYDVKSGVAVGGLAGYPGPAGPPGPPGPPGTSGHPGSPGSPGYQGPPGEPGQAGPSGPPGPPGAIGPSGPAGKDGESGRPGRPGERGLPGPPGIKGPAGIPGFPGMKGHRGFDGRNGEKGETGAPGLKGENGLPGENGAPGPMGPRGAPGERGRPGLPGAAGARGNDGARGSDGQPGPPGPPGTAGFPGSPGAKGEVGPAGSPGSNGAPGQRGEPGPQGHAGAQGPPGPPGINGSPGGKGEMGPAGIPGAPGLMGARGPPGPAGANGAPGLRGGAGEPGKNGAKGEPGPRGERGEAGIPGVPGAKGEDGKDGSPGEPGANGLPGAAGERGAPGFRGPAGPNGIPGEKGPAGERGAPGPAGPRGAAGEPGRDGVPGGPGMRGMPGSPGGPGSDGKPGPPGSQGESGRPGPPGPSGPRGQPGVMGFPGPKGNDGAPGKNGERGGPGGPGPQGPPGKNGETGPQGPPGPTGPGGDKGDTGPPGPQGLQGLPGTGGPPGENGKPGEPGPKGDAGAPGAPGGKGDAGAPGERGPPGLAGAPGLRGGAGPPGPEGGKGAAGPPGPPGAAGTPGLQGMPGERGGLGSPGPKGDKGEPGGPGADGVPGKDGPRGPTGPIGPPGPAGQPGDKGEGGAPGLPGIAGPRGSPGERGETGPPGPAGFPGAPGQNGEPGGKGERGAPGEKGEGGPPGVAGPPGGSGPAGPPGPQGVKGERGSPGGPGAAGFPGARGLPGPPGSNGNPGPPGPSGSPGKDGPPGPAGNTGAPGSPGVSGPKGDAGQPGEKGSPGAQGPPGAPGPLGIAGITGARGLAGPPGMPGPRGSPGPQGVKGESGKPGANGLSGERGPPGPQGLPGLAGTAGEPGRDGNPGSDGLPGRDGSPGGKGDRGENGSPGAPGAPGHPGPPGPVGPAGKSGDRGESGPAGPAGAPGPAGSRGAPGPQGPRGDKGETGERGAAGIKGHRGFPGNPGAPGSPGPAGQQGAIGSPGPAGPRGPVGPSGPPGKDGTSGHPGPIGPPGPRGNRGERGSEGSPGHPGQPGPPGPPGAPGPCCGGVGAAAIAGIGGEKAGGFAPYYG

Sequence of Synthetic human type I collagen (chain, as listed by the source, chain 1 of 2): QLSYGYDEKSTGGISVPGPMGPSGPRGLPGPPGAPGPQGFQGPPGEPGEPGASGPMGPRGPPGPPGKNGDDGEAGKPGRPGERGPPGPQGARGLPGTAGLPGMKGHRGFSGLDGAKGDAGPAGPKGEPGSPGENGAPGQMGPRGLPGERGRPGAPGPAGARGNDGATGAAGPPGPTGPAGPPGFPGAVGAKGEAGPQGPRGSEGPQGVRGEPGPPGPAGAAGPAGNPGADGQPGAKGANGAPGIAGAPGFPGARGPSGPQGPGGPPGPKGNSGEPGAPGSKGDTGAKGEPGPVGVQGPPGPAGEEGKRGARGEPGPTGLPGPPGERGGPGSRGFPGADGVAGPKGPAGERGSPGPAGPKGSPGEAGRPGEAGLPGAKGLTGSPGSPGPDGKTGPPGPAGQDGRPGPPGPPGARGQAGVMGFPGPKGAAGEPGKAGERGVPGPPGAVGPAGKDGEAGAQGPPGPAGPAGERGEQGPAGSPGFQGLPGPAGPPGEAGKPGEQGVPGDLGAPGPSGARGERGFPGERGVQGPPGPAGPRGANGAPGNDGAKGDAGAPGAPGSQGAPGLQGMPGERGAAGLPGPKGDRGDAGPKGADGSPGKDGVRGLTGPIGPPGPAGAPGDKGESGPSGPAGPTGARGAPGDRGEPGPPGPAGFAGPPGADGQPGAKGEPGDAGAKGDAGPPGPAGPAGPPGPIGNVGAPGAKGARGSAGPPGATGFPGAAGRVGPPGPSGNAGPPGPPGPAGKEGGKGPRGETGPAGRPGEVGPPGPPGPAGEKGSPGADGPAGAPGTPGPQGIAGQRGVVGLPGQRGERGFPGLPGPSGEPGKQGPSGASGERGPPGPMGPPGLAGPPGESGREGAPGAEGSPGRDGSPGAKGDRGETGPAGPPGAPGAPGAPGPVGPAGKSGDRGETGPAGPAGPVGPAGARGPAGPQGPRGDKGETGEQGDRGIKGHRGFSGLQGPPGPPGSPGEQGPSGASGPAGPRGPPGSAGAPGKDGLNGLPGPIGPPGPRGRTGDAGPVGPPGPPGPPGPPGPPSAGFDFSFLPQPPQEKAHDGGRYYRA
Sequence of Synthetic human type I collagen (chain, as listed by the source, chain 2 of 2): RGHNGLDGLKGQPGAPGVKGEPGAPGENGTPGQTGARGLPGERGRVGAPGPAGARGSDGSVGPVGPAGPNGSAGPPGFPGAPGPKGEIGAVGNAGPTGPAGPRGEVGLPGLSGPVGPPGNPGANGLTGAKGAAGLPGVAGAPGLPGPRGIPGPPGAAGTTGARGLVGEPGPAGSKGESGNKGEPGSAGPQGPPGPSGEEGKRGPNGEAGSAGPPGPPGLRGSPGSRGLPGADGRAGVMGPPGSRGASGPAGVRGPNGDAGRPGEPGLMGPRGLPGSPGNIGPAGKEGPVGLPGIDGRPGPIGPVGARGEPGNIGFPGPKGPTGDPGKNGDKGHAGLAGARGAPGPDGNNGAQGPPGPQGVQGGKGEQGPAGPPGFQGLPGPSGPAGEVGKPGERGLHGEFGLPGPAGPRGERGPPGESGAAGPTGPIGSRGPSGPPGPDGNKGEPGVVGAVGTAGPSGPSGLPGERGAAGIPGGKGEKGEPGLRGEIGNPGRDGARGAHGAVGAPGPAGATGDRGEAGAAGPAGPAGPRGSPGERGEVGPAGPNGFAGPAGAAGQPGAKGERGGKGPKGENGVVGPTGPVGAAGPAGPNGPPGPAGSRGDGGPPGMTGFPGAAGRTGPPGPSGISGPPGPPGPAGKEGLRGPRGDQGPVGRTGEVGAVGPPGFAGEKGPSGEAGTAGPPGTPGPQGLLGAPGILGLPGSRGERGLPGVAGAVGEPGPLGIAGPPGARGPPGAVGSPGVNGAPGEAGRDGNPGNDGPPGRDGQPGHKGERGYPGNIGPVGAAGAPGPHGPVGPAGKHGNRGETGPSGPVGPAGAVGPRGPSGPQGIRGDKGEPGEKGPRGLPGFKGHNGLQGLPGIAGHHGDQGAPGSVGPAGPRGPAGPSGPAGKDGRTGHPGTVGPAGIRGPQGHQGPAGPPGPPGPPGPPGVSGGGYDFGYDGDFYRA

B1: MMP-1 (collagenase 1, fibroblast collagenase) (protein)
chain: FVLTEGNPRWEQTHLTYRIENYTPDLPRADVDHAIEKAFQLWSNVTPLTFTKVSEGQADIMISFVRGDHRDNSPFDGPGGNLAHAFQPGPGIGGDAHFDEDERWTNNFREYNLHRVAAHELGHSLGLSHSTDIGALMYPSYTFSGDVQLAQDDIDGIQAIYGRSQNPVQPIGPQTPKACDSKLTFDAITTIRGEVMFFKDRFYMRTNPFYPEVELNFISVFWPQLPNGLEAAYEFADRDEVRFFKGNKYWAVQGQNVLHGYPKDIYSSFGFPRTVKHIDAALSEENTGKTYFFVANKYWRYDEYKRSMDPGYPKMIAHDFPGIGHKVDAVFMKDGFFYFFHGTRQYKFDPKTKRILTLQKANSWFNCRKN
[1]
  cleavage of collagen (SDS-PAGE after 1, 2 and 7 days at 37 C): both synthetic human type I and type III collagen were cleaved by MMP-1 (FIG. 1A) and MMP-8 (FIG. 1B)
[2]
  cleavage of collagen (SDS-PAGE after 1, 2 and 7 days at 37 C): both synthetic human type I and type III collagen were cleaved by MMP-1 (FIG. 1A) and MMP-8 (FIG. 1B)
  extent of degradation of collagen (SDS-PAGE): Synthetic human type III collagen was degraded by MMP-1 to a greater extent than by MMP-8

Reference: patent publication US20060100138
